Series [1] in a line: PET hydrolysis, aromatic products released after 48 h (umol product/mg enzyme); higher = more PET depolymerization activity. As to conditions: substrate: cryPow. As for the experimental part:
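HTP-purified, SUMO-cleaved, tagless PET hydrolase candidates (5 ug, 1.43 mg/g PET) were incubated 48 h without shaking with 3.5 mg amorphous PET film (aFilm) or crystalline PET powder (cryPow) in 0.5 mL buffer: NaCitrate pH 4.5/5.5, NaPhosphate pH 6.5/7.5, glycine pH 8.5. Incubation was at 40 or 60 C. Aromatic products (TPA, MHET, BHET) in the supernatant were quantified by UV absorbance at 260/280 nm relative to buffer blanks and expressed per mg enzyme. LCC-ICCG was the positive control on every plate.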

The nature of series [2]: purified protein yield per well (BCA); higher = higher soluble expression. The procedure, abridged:
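Expression was done in E. coli C41(DE3), using 2 mL autoinduction cultures with 100 µg/mL kanamycin incubated at 37 °C for 2 h and at 18 °C for 40 h. Protein was purified on Ni-charged magnetic beads and released by SUMO protease cleavage. Yield of purified protein per well was measured with the Pierce Rapid Gold BCA kit; values below 25 ug (0.1 mg/mL) are below detection.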

Here are results for 14 sequences from the supplement of paper PMC12455559.

Bounds are passed on as bounds.

Consider “QVAIFQESFSSGLGGFTATGTVGTSTGAARMEGCYGCTDGAITSGAISTQGFTGLSLSFDRVTSGLDSGEAGIAEYSTNGSTWTAVESTRVTTNGRVTFSLPDTAAGQAALRLRFRIDASLSSETYTVDNVQLTGIPGDTGTNPYAKGPNPTTSMLESSTGPFTYATTNVSEFSASGYGGGTIYHPTNVAGPFAAIAISPGYTGTKSTMSWWGERLASHGFVVITIDTNSIYDQPYERAPQLMAALRQLVTFSNTSSHPIYRKVDPNRLGVMGHSMGGGGTLIAARDNPTLKAAIPLAPWNTSTDFSSVRVPTLVVACESDTIAPVSQHASPFYNSIPASATKKAFMEMNNGDHFCVMTGNDYTRIMGKYGVAWMKRFMDNDTRYSPFLCGAPHQADLSNIQISEYRENCPY [DP048]”, for which the PET hydrolysis in series [1] (40 °C, pH 5.5) is below 3; in series [1] (40 °C, pH 6.5) it was below 3; in series [1] (40 °C, pH 7.5), below 3; in series [1] (40 °C, pH 8.5) it was below 3; in series [1] (60 °C, pH 5.5), below 3; in series [1] (60 °C, pH 6.5), below 3. Moreover, the PET hydrolysis was below 3 in series [1] (60 °C, pH 7.5) and below 3 in series [1] (60 °C, pH 8.5). Moreover, in series [2], the “purified protein yield per well” value was 56 µg.
With “SNPTPTPTPTPTPTPTPGNNPFQRGPNPTLSFIEANSGPYSVRTSRVSSYTSGFGGGTIHYPTGQSGTMGAIVVIPGFVSAESSIEWWGPKLASHGFVVMTIDTNSGFDQPPSRARQINAALDYLVAQNRSSRSPVRGMIDTNRLGVVGWSMGGGGTLRVASEGRIKAAIPLAPWDTTSFRNVKAPTLIFACESDVIAPVGQHASPFYNELPSNISKAFVELNGGSHYCGNGGNSYNDVLSRFGVSWMKRFLDNDTRYSQFLCGPNHTSDRDISEYRGNCNY [ESM042]”, the PET hydrolysis in series [1] (40 °C, pH 4.5) is below 3; in series [1] (40 °C, pH 5.5), below 3; in series [1] (40 °C, pH 6.5), below 3; in series [1] (40 °C, pH 7.5), below 3; in series [1] (60 °C, pH 4.5), below 3; in series [1] (60 °C, pH 5.5) it was below 3. Moreover, the PET hydrolysis in series [1] (60 °C, pH 6.5) was below 3; in series [1] (60 °C, pH 7.5), below 3. Further, the “purified protein yield per well” value in series [2] came to 73.3 µg.
In the case of “APGPSAPCADCSRGPNPTVASLQSRSGPFTVSTFSVSGYLRGFGNSTVHYPTNATGKMGAIAVIPGYLSYEDSIRWWGPRLASHGFVVITMNTNTIYDQPDSRATQLSRALDYVIEQSNSRSSPISGKVDSTRLGAIGWSMGGGGSLKLSTERSLNAIIPQAPYYAGLNRFNTINTPTMILACSADVVAPVASHASPFYNRIPDATPKAFLEIYGGSHFCANSGYPNEDLLGMYGISWMKRFIDFDSRYSQFLCGPNHAADLRVSEYRENCNY [ESM165]”, the “purified protein yield per well” value in series [2] is below 25 µg.
The same measure, in the same setting: as for “FTASQSSIQWYGPLLAGEGFVVITIDTNTIFDQPDSRATQLLAALDYLTGSSDVRHIVDPNRLAVAGWSMGGGGSLEAAVRRPSLKAAIPLAGWHTTKTFNTAVPTLVVACENDAVAGNAQHSGPFYDGLPASTPKAYLEIAGGDHTCVGSYDINIATPVVAWAKRWVNGDTSASAQLCPPKPIGGPISDSKANCPY [ESM171]”, the figure is below 25 µg.
As for “SQGTFGAAVVSPGFLSPQVAWAGPRIASHGFVVLTIDTNTIFDSPTSRSQQLQAALSYLVSPASGVANRIDPSRLAAMGHSMGGGGTLELAARLPTLQAAVPLQPWDIAQSFSGIRVPTMIIGAQADFIAPVASHSEPFYQQVPATTEKAYLEVAGADHLIGLLGNPTQARYSVAWLKRYVDDDTRYDQFICPPPSGPTISEYRNTCPP [TEP153]”, the “purified protein yield per well” value in series [2] was below 25 µg.
Same read-out and setting: as for “QSYVHGPDPTTAALETTGPYAVSNTKIAAPSGYGGGTVYYPTTNTEGAFAVVSVTPGFTEKQSAINWLGPLLASHGFVVVTIDTKTALDAPSSRAKQMIAALKQVSGLSANSTSPFAGRVDGTRQAVMGHSMGGGGSLDAARDNPTLKASIPMAPWETVKNYSTMTVPTLIVSCESDTIAPVASHANKFYDSFTPTLNKALLEMKGVGHSCTNSTTSAALKAVIGKYSISWLKRFADNDNRYSDFLCGASHQADVSGSLISTYKENCPY [DP066]”, the figure is below 25 µg; as for “MRRSLPPSAEAGTAVGGAGPGRPARPVLPLAAVALTLVAAVTAALLAIRPATTDAKSSQRGPDPTLAGVAAATGPFTTAQVSVPPGDGFNGGTIYYPADTSRGTWAAVAISPGYTALFADEEAWMGPRLASFGFVVIGIETDSRTDYDSQRGTQLLAALDYLTTQSPVRNRVDPRRLGVIGHSMGGGGVVYAAENRPSLKAAVALAPYSPTQDMSTDTVPTMVIDGQNDTVVTPAAVDALYATLPASTRSAFMQIDGADHAYYTHPNPVEMRVLIPWLKIFLDNDTRYTRFLCPSPADPSGVSSYHSRCP [TEP071]”, below 25 µg.
Still for that read-out and setting: as for “SNPAPEPSPTPSPSPSQPSNPFQRGPNPTVASVESAGPFAVRTSRVSSAVSGFGGGTIYYPSGTTGTMAAIVVIPGYVSSQSSIEWWGPRLASNGFVVMTIDTNATTDQPPARARQINAALDYLIAQNRASGSPVNGMIDTSRLGVVGWSMGGGGTLRVASEGRIKAAIPLAPWDTTTFRNVKAPTLIFACESDTIAPVRNHASPFYNQVPTSIPKAFVQLNRGNHYCANGGNAFNADLSRLGVSWMKRFLDNDRRFSQFLCGPN [ESM016]”, the figure is below 25 µg; as for “TQSGPYQVKRYREKDGLRNGPRYRGATVYYPTDARGLLASIVIVPGYISPERSIRAWGPFYASHGIVAMTIGTNRPQDAPAARRRALLDAITSLKLENHRANSPLKGRLAVTRIAVSGWSMGGGGALEAATRAPQLKAVVALCPWNPYQTFSHRVPVLFLAGQRDRLAPVSDNALRHYEKTPASTPKLLFEVRNEGHWVANTPQGGNGAIGRLALS [TEP155]”, below 25 µg.
As to “AQSPYERGPAPTETSVRASTGPFQYAQVSVPGAGFGSGTIYYPTDTGQGTFGGVAVSPGFLSPEILIAWLGPKLASNGFVVITISTNNPGDQPDSRGEQLLAALNYLATQSPAAVRQRLDPGRLSVIGHSMGGGGALRAADSRPDLQAAIPLGGWHTNKNWSNIRVPTMVIGAQNDFIAPNDQHSQRFYTSITQAPEKAYLRPVGTGHVNVGTGTPVVGKFVLSWLKRFVDDDTRYDQFLCPTPSGSDLVEYHSTCPHT [DP014]”, the “purified protein yield per well” value in series [2] is below 25 µg.
For “MIYYPTDTSQGTFGAIAISPGYTALFSVELAWMGPRLASQGFVVIGIETNDRNDFDTARGTQLLAALDYLTGQSSVRSRVDPNRLAVAGHSMGGGGAFSAALRRPALKAAVGFTPFSPSQNLTNMQVPALLYSGQYDTVTTPSSVSNLYNGLPSTTEGAYIEAAGLDHSFPTRPNTLLMRTMIPWVKIFLDNDLRYTQFLCPLMDSSGVLQYRNTCPLVPPGLPSPSPTTAPPTTAPPTTAPPTTAPPTTAPPTTAPPTTAPPTTAPPSGACTATYQTIGSWPGGFQGEVTVRAGNSAINGWTVGWSLGSGQSITQIWNGTLSTSGSSVSVRNVSYNGSLPAAGTATFGFLGSGSPSTPSTVTCTSP [ESM001]”, the “purified protein yield per well” value in series [2] was below 25 µg.
The same measure, in the same setting: as for “DSPYERGPDPTERSIEATRGPFSVSTISVSDFSTPGFGAANITYPTSRSEGTFGVVAISPGYTAGESTIAWLRPRIASQGFVVISFDTNSRTDFPSSRGDQLLAALDYVIEDSSVRDRVDGSRQAVMGHSMGGGGSLEAASDRRSIEAVVGLTPWNSDKTWSEVDAASLMIGAENDSVAPARTHAIPFYNSLTGAEDRAYLELDGASHLAPTFSNTEIAKYSISWLKRFVDDDDRYDQFLCPAPSTGFGSPLSDSRVSCPLG [DP098]”, the figure is below 25 µg; as for “FRSRGATIFYPEEPSHPLASIVIVPGWSSSERSIRAWGPFLASHGMVTMTIGTNNPPRDFPEQRAAALLDAIATLRAENARDTSPIFEKLDLSRIAVGGWSMGGGGAQLAAVQDPALKAAIGLCPWHEAPDIFEHTVPLLIIGGEKDRRAPFNEHGLVHYCTTPPATPKLLFEVRDAGH [TEP100]”, below 25 µg; as for “VENGPAPTLAALKADGPYAITSQAVPGNGFGAGTVYVPTAAGKYALVAICPGFVSAQSTMTDMAKRLATHGFVVVAISTNTLLDFPPSRASQLLAALKATASLTSGPVVGKIDTSRQAVSGWSMGGGGTLEAAGSTPGLMAAVAFAPWDTSTTKMKVDKVPAAIIGGSSDVIAPVSSHSQPFYNAIPSTTPKLLAVISGASHFFPTTASEPASYTNISWMKRFADGDTRYSQFLNGNDAALSSFTSNGPF [ESM092]”, below 25 µg.
